B1: TPR t1 (parent)
chain: GACCAAUCUGCCCUCAGAGCUCGAGAACAUCUUCGGAUGCAGAGGAGGCAGGCUUCGGUGGCGCGAUAGCGCCAACGUCCUCAACCUCCAAUGCAUCCCACCACAUGAUGAUGCCUGAAGAGCCUUGGUUUUUUG

Variants of: B1
Assay: polymerase ribozyme fitness, log enrichment relative to wild type (log ratio); higher = more active; in vitro selection for triplet polymerase activity
How it was run: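 Mutant libraries of both subunits of a heterodimeric triplet polymerase ribozyme were PCR-built, transcribed, and selected once in triplicate, with frozen incubation at −7 °C and capture of gel-excised extended constructs on streptavidin beads before RT-PCR. Illumina sequencing of input and output libraries was filtered to genotypes with ≥10 input reads and ≥1 read per output. Fitness is the logarithm of genotype enrichment over wild-type enrichment, using inverse-variance-weighted replicate averages. The logarithm is base 2.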

In order of falling “polymerase ribozyme fitness (log ratio)” value:
1. U14A A121U  1.98
2. G61U A121C  1.94
3. C124A  1.78
4. C72U A84C C124U  1.07
5. C49U G77A C123G  1.03
6. G10U A84G G120A U125G  0.926
7. C80U A119G  0.683
8. A5C G120C  0.663
9. C72U U112G  0.605
10. G39U A119G  0.375
11. C104U A111G  0.178
12. C8G U55G C88A A121U G128U  0.0321
13. U112A C114G  -0.0146
14. G58C C62U U133A  -0.0723
15. U32C G57U  -0.164
16. C11U U132A  -0.17
17. C53U G120U  -0.193
18. A83C A119G  -0.249
19. C73U U96G  -0.308
20. U54C G77U  -0.352
21. C13U C56A  -0.36
22. G45C C72A G135C  -0.387
23. G57A U59G  -0.399
24. C102A C124A U130A  -0.438
25. U9C C49A C53U C88U U133A  -0.445
26. A46C C56G C72G U87A A100U C124A  -0.516
27. C79G U112C G122C  -0.637
28. G61A U125G  -0.638
29. U129A U132C  -0.64
30. C73U U130A U131A  -0.703
31. G52C A83C A118G U131A  -0.732
32. U9C C15G U78G U96C C124U  -0.775
33. A5C C49U C53A C73U  -0.789
34. U112A C115G  -0.927
35. G71A C82A C89U  -1.01
36. A50U G57U  -1.1
37. C13U C20U G61A U92C  -1.11
38. C3U G45U  -1.13
39. C20U G45A C53G  -1.22
40. A18U C70U A121U  -1.34
41. G58A C72G G127A  -1.35
42. U32C U81A A90G U112A G113A  -1.38
43. G48U U87A  -1.44
44. G47U G48C  -1.51
45. A46U G60A  -1.55
46. U9C A43G G61A C89U  -1.55
47. C15U U96A  -1.57
48. G61U U106C G135U  -1.67
49. A16U C64U  -1.71
50. C40G C56A C86U  -1.71
51. C11G G51A C53G C124U U131G  -1.71
52. A29U A50G U81C C114U  -1.72
53. A2G C8G U96A G135U  -1.73
54. A83C C114U  -1.78
55. C12A U96A  -1.84
56. C4A A41G U106A  -1.87
57. C13U G113U U125C  -1.89
58. A41U C53U G120U  -1.89
59. U9G A16U U59C U81A C94A  -1.92
60. G71C G93C  -1.98
61. C11G G51A C53G G61U C124U U131G  -1.99
62. G10U C11U C73A C88A U126C  -2.02
63. A16U G52A  -2.03
64. A2C G36A U54C  -2.04
65. A83C G107C  -2.05
66. U7A U92A  -2.1
67. C49G G63C A111G G120A  -2.1
68. A50C C56G A105U G120C  -2.11
69. C88A U130A  -2.14
70. G61A C89G G93A  -2.18
71. U78G C79A A118G U130G  -2.19
72. C3A C88A  -2.21
73. C88A U129A  -2.21
74. A50U G52U U87G  -2.24
75. U9C C72A C76U G77U  -2.24
76. U81A C86A  -2.24
77. C15U G110A  -2.25
78. G48U C56U C104A  -2.25
79. C70G G122U  -2.27
80. C3A U9A G61C  -2.34
81. C11U G19U U54A A121C G135U  -2.38
82. A5C G60U G128A  -2.44
83. G19U C20U  -2.46
84. A2G C34A A46G C73A  -2.49
85. C22G G48C C72U C124U  -2.66
86. U7C U14A A46U C64U  -2.69
87. G47C G48U  -2.71
88. U7C C34A  -2.72
89. A43G G63C U96C  -2.76
90. C15A G45U G61U A84U C123U  -2.78
91. U30C C115A  -2.84
92. A2G U7C U9C G51U  -2.87
93. G39C A118C  -2.89
94. A74G A100U G128U  -3.08
95. G19A G44U  -3.1
96. G10C A43G  -3.12
97. G42C C49A C56U U96A  -3.16
98. C28A C73A C124G  -3.22
99. G44A U92G  -3.27
100. A29U A66G  -3.28
101. G61U C79A G110U  -3.28
102. C86A G107U A121U U132C  -3.32
103. C62G U78C U96C  -3.37
104. G47C C79U G93U  -3.38
105. C13A G42U  -3.39
106. A18C G19A C85U G120A  -3.39
107. U96A C102A  -3.43
108. C49U G113C  -3.45
109. A2C U7C C15U C72U A105U  -3.49
110. A50U G63C C86G U87A  -3.52
111. G51U C73G  -3.52
112. A103G U112C  -3.53
113. C13U A90U G117C  -3.61
114. G107A A121C  -3.64
115. G71A C79G C124G U125A  -3.71
116. G61A G63U  -3.75
117. A91C G113U  -3.8
118. C70U C102A G127A  -3.84
119. C12U G52U A68G A74G  -3.85
120. A27C C70U  -3.87
121. A24G G71U C86G  -3.88
122. A18G G57U  -3.92
123. A16C C70U C85G  -3.97
124. G63A A91C  -4.17
125. A90C C102U A111G  -4.24
126. C11G G17A C72A  -4.27
127. C22G A37U C88U  -4.47
128. A5U A66C G113U C124A  -4.62
129. U54G G71A  -4.72
130. U9C G51U G61C C97A G120A U130C  -4.88
131. U14A A91C C115G U133A  -4.89
132. C8G C34A C72G C82U G110U  -4.9
133. U21G G93A C114G  -4.94
134. G47A U92C G127A  -5.01
135. U9G A26C A37G A111U U131C  -5.09
136. A5U G71U C72U C101G G117U  -5.12
137. C22G C40A G69C G113A  -5.15
138. U9G G65C  -5.24
139. C22G G113C  -5.28
140. U7C G69U C80A A83U G128C  -5.37
141. G60C G61C U81G C115U  -5.37
142. A18G G69U C102U C115A  -5.41
143. A6C C40A C62U C88A C104A  -5.43
144. C12A G19U C79G  -5.7
145. C20U U32G C73G C97U C123U  -5.73
146. A105U G113C  -5.86
147. A50G C56U G69C C123G C124G  -5.93
148. C8U G48U G71U A74U C104A G117A C124U  -6.05
149. A74G U87A G117C G120A A121U U129A  -6.07
150. G23A C49U C56A U116C  -6.08
151. G69A A111U U130A  -6.09
152. C85U C86A C94G G117C  -6.16
153. C22G A75U C101U C123A G128C  -6.24
154. A41U G42C C70A  -6.24
155. C31G C72G  -6.27
156. C12A C49G U109C A111U  -6.35
157. G42U U81C C85G U126G  -6.41
158. C34U A68G C70U  -6.49
159. A50C C62A C98A A111U U112A  -6.58
160. U14G C85G A95C C101G  -6.61
161. C15U G23U G47A C49U C62U G65A A111C  -6.66
162. A27C A50G G63U G110C U125G  -6.71
163. U9G G63U C64A C88A A119G  -6.72
164. A43C A68G U109A G117U  -6.95
165. C28G A29G G42U G44A A83U C124U  -7.08
166. C12A A26C C56U G69A C85A  -7.09
167. A24U G52U U55C C64A C82A C86G C99A G110A A119G  -7.53

Reference: the RNAGym collection of RNA variant scans (doi:10.1073/pnas.2313332121)
